# Measurements: patent publication US11352401
# Molecular target: T1, HLA-A*24 (human)
# T1 construct: MHC monomer made peptide-receptive by UV cleavage of a UV-sensitive ligand; also called peptide-receptive MHC class I monomer
# Assay: UV peptide-exchange ELISA; ++++ = yield >75%
# From the text: (§1) Candidate peptides for T cell based therapies according to the present invention were further tested for their MHC binding capacity (affinity). The individual peptide-MHC complexes were produced by UV-ligand exchange, where a UV-sensitive peptide is cleaved upon UV-irradiation, and exchanged with the peptide of interest as analyzed. Only peptide candidates that can effectively bind and stabilize the peptide-receptive MHC molecules prevent dissociation of the MHC complexes. To determine the yield of the exchange reaction, an ELISA was performed based on the detection of the light chain (β2m) of stabilized MHC complexes. The assay was performed as generally described in Rodenko et al. (Rodenko et al., 2006).
# (§2) 96 well MAXISorp plates (NUNC) were coated over night with 2 ug/ml streptavidin in PBS at room temperature, washed 4× and blocked for 1 h at 37° C. in 2% BSA containing blocking buffer. […] Peptide-MHC monomers of the UV-exchange reaction were diluted 100-fold in blocking buffer. Samples were incubated for 1 h at 37° C., washed four times, incubated with 2 ug/ml HRP conjugated anti-β2m for 1h at 37° C., washed again and detected with TMB solution that is stopped with […]. Absorption was measured at 450 nm.
row,Binder,peptide exchange yield
1,VYNDHSIYVW [VYNDHSIYVW (SEQ ID NO: 386)],> 75%
2,MYINEVERL [MYINEVERL (SEQ ID NO: 385)],> 75%

# Molecular target: T2, HLA-B*07 (human)
# T2 construct: MHC monomer made peptide-receptive by UV cleavage of a UV-sensitive ligand; also called peptide-receptive MHC class I monomer
# Assay: UV peptide-exchange ELISA; ++++ = yield >75%
# From the text: as §1, §2
row,Binder,peptide exchange yield
1,RPHKPGLYL [RPHKPGLYL (SEQ ID NO: 475)],> 75%
2,VPTLRSEL [VPTLRSEL (SEQ ID NO: 286)],> 75%
3,SPDIRNTTV [SPDIRNTTV (SEQ ID NO: 252)],> 75%
4,LPRGPLASL [LPRGPLASL (SEQ ID NO: 258)],> 75%
5,VPSSRILQL [VPSSRILQL (SEQ ID NO: 249)],> 75%
6,RPIENRILIL [RPIENRILIL (SEQ ID NO: 243)],> 75%
7,RPRALRDLQL [RPRALRDLQL (SEQ ID NO: 231)],> 75%
8,LPRIPFADV [LPRIPFADV (SEQ ID NO: 257)],> 75%
9,LPFDGPGGIL [LPFDGPGGIL (SEQ ID NO: 225)],> 75%
10,RPRAPVTPA [RPRAPVTPA (SEQ ID NO: 281)],> 75%
11,GPTPNTGAAL [GPTPNTGAAL (SEQ ID NO: 294)],> 75%
12,SPNSYFRVL [SPNSYFRVL (SEQ ID NO: 470)],> 75%
13,YVPSASLFML [YVPSASLFML (SEQ ID NO: 239)],> 75%
14,SPREVTTVL [SPREVTTVL (SEQ ID NO: 240)],> 75%
15,SARLATDAL [SARLATDAL (SEQ ID NO: 241)],> 75%
16,VPENHSVAL [VPENHSVAL (SEQ ID NO: 289)],> 75%
17,YPRPGTPAA [YPRPGTPAA (SEQ ID NO: 464)],> 75%
18,LPRALLSSL [LPRALLSSL (SEQ ID NO: 473)],> 75%
19,HPAPYGDLL [HPAPYGDLL (SEQ ID NO: 263)],> 75%
20,SPRVPSIEL [SPRVPSIEL (SEQ ID NO: 256)],> 75%
21,APYKSVTSL [APYKSVTSL (SEQ ID NO: 466)],> 75%

row,Binder,peptide exchange yield
1,RAKNAGVTI [RAKNAGVTI (SEQ ID NO: 234)],> 75%
2,TPLPAVIVL [TPLPAVIVL (SEQ ID NO: 246)],> 75%
3,MPLPWSLALPL [MPLPWSLALPL (SEQ ID NO: 272)],> 75%
4,RPHSLSSEL [RPHSLSSEL (SEQ ID NO: 283)],> 75%
5,RPRALRDLQLL [RPRALRDLQLL (SEQ ID NO: 232)],> 75%
6,YPRGNHWAVGHL [YPRGNHWAVGHL (SEQ ID NO: 228)],> 75%
7,LPRLLPAL [LPRLLPAL (SEQ ID NO: 474)],> 75%
8,VPDVAQFVL [VPDVAQFVL (SEQ ID NO: 221)],> 75%
9,IPNWARQDL [IPNWARQDL (SEQ ID NO: 248)],> 75%
10,SPSVSQLSVL [SPSVSQLSVL (SEQ ID NO: 220)],> 75%
11,TPKAGPTL [TPKAGPTL (SEQ ID NO: 463)],> 75%
12,APGPRFLVT [APGPRFLVT (SEQ ID NO: 270)],> 75%
13,SPQRLRGLL [SPQRLRGLL (SEQ ID NO: 291)],> 75%
14,MPLLENLYL [MPLLENLYL (SEQ ID NO: 255)],> 75%
15,SPMYGQAGL [SPMYGQAGL (SEQ ID NO: 468)],> 75%
16,RPFHTRATV [RPFHTRATV (SEQ ID NO: 462)],> 75%
17,MPLKHYLLL [MPLKHYLLL (SEQ ID NO: 235)],> 75%
18,NPRATDAQL [NPRATDAQL (SEQ ID NO: 472)],> 75%
19,KPYQGNPTF [KPYQGNPTF (SEQ ID NO: 233)],> 75%
20,KPEGTRIAV [KPEGTRIAV (SEQ ID NO: 295)],> 75%
21,KPFSSFTSM [KPFSSFTSM (SEQ ID NO: 467)],> 75%

row,Binder,peptide exchange yield
1,GPQPWHAAL [GPQPWHAAL (SEQ ID NO: 224)],> 75%
2,NPFPHLITL [NPFPHLITL (SEQ ID NO: 254)],> 75%
3,SPRQPPRLV [SPRQPPRLV (SEQ ID NO: 265)],> 75%
4,APYRPPDISL [APYRPPDISL (SEQ ID NO: 290)],> 75%
5,SPRDFLSGL [SPRDFLSGL (SEQ ID NO: 250)],> 75%
6,MPMAGDMNGL [MPMAGDMNGL (SEQ ID NO: 460)],> 75%
7,YPKDIYSSF [YPKDIYSSF (SEQ ID NO: 223)],> 75%
8,SPRMSGLLSQT [SPRMSGLLSQT (SEQ ID NO: 226)],> 75%
9,FPSFLTNSL [FPSFLTNSL (SEQ ID NO: 285)],> 75%
10,YPLFRGINL [YPLFRGINL (SEQ ID NO: 268)],> 75%
11,VPRPIFSQL [VPRPIFSQL (SEQ ID NO: 465)],> 75%
12,KPRPDVTNEL [KPRPDVTNEL (SEQ ID NO: 471)],> 75%
13,VPRSSGQTV [VPRSSGQTV (SEQ ID NO: 251)],> 75%
14,YPRGNHWAVGH [YPRGNHWAVGH (SEQ ID NO: 227)],> 75%
15,FPYVRDFVM [FPYVRDFVM (SEQ ID NO: 244)],> 75%
16,RVRGGEDGDRAL [RVRGGEDGDRAL (SEQ ID NO: 236)],> 75%
17,APRAPRLML [APRAPRLML (SEQ ID NO: 269)],> 75%
18,SPRWLPVSL [SPRWLPVSL (SEQ ID NO: 242)],> 75%
19,KPGPPWAAF [KPGPPWAAF (SEQ ID NO: 238)],> 75%
20,RPPAAGLRGISL [RPPAAGLRGISL (SEQ ID NO: 259)],> 75%
21,RPRSALPRLLLP [RPRSALPRLLLP (SEQ ID NO: 293)],> 75%

# Molecular target: T3, HLA-A*01 (human)
# T3 construct: MHC monomer made peptide-receptive by UV cleavage of a UV-sensitive ligand; also called peptide-receptive MHC class I monomer
# Assay: UV peptide-exchange ELISA; +++ = yield >50%
# From the text: as §1, §2
row,Binder,peptide exchange yield
1,KTDESLTKY [KTDESLTKY (SEQ ID NO: 414)],50 to 75%
2,FTEQWTDGY [FTEQWTDGY (SEQ ID NO: 408)],50 to 75%
3,LLDPRSYHTY [LLDPRSYHTY (SEQ ID NO: 415)],50 to 75%
